Molecular target: SafA_(Ntd1) (Salmonella enterica)
Assay: crystal structure

Q: Which stoichiometry N does the source give for SafA_(Ntd1) (domain or fragment) here?
A: Its stoichiometry N is 2.
